# B1: Escherichia coli YoeB (enzyme, UniProt P69348 1-84, looked up)
# chain: MKLIWSEESWDDYLYWQETDKRIVKKINELIKDTRRTPFEGKGKPEPLKHNLSGFWSRRITEEHRLVYAVTDDSLLIAACRYHY
# notes: In the crystal two copies (monomers A and B) sit on the ribosomal A site as a homodimer; also called YeoB; monomer A; source: E. coli BL21(DE3), co-expressed with His-tagged YefM
# Molecular target: the molecule itself
# Assay: crystal structure; T. thermophilus 70S ribosome 4.4 uM with mRNA MOO4b (2'-O-methylated A-site codon) and tRNAfMet, YoeB added to 44 uM, buffer G (5 mM HEPES pH 7.5, 50 mM KCl, 10 mM NH4Cl, 10 mM Mg-acetate, 6 mM 2-mercaptoethanol); pre-cleavage state, 3.35 A
protein,measurement,value
B1,stoichiometry N,2

# Source: paper PMC3814384, “YoeB–ribosome structure: a canonical RNase that requires the ribosome for its specific activity” (Nucleic Acids Research, 2013)
